In the supplement of paper PMC9942255:

Tested on: Bacillus subtilis DB104 (SP-AmyQ fusion secretion)
Experiment: AmyQ secretion efficiency, weighted average sort bin (1 = best secretion, 10 = worst) (bin number (weighted average, 1-10)); higher = lower secretion efficiency
How it was run: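 Secretion score gives the read-frequency-weighted average bin number, normalised to beads per bin, with low-abundance sequences left out. A B. subtilis DB104 library expressing mature AmyQ fused to designed signal peptides, integrated at amyE, was encapsulated with fluorescein-starch at about 0.3 cells per ~65 nL alginate bead. Beads were grown about 13 h at room temperature, stained with nile red, and the occupied ones were sorted by large-particle flow cytometry into 10 equally populated bins by green/red fluorescence ratio before the amplicons from each bin were Illumina-sequenced.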

Sequence | AmyQ secretion efficiency
MKKIVSILFMFGLVMGFSQFQPSTVFAASD | 1.84
MKLSVKIKKKRRKAAAAMTAKMYATAKGN | 7.56
MKSCKQLIVCSLAAILLLIPSVSFSTSTGASSFAADS | 6.07
MKRTWNVCLTALLSVLLVAGSVPFHGEAKKP | 2.79
MKLKSKYKGGCYAAAAIFTAAGVSANAEALDF | 7.31
MHLIRAAGAVCLAVVLIAGCREAEGENT | 4.69
MRNLTKTSLLLAGLCTAAQMVFVTHASAAPS | 1.69
MKRRRRRFILVLSFLSIIVAYPIQTNASPM | 2.07
MKRMIVRMTLPLLIVCLAFSKKSASARAASE | 7.39
MKVLLSALLLLLFAFEPSASEKKL | 5.89
MKVLLSALLLLLFAFEPSASAKKL | 1.92
MKRSYVSLRVWMVFLMNWVTPDRKTAAAAVY | 6.51
MAIIIAIIAAVIVIAALITFNVRNPSPG | 7.75
MKKLAAGLTASAIVGTTLVVTPAEAATI | 2.27
MRKNRILALFVLSLGLLSFMVTPVSTASK | 5.93
MMQIMIFLTSFMLLAMTGQTALAKDV | 4.32
MNLRKILLSSALSLGMLVSAAPCLATSS | 2.03
MKRMIVRMTKKRRIVCLAFSSFSASARAASE | 5.68
MFNRLFRVCFLAALIMAFTLPNSFYAQKP | 6.02
MYKKFVPFAVFLFLFFVSFEMMENPHALDY | 7.08
MRNLTKTSLLLAGLCTAAQMVFVTHMSAEES | 3.28
MKRLLVSLRVWMVFLMNWVTPDRKTTPSGAAAAVY | 6.68
MKKKQVMLALTAAAGLGLTALHSAPAAKQAPL | 4.93
MKKAAAVLLSLGLVFGFSYGAGHVAEADDD | 5.61
MLKRTSFVSSLFISSAVLLSILLGSGQAHAQSA | 2.06
MKSKWMSGLLLVAVGFSFTQVMYHAGET | 7.02

Sequence | AmyQ secretion efficiency
MKKRLIAPMLLSAASLAFFAEEESAQAAAY | 2.27
MKLAKRVSALTPSTTLAIKKKKRAKAKEL | 7.08
MNLRKILLSSALSLGMLVSAAPVLMTSS | 4.51
MRPVFPLILSAVLFLSCFFGARQTEGSASKR | 4.92
MKIRKILLSSALSFGMLRKRVPALAAGT | 6.53
MKKRLIAPMLLSAASLAFFAMSGSAQWAAY | 6.21
MKKVVLVLSIAGIGGFSVHAASS | 6.91
MKNMSCKGVVSVTLFFSFLTIGPLAHAQNS | 1.49
MKRLLVSLRVWMVFLMNWVTVGRKTAAAAVY | 5.77
MRKYTVIASILLSFLSVLESKAFPV | 4.71
MKRIRIPMTLALGAALTIAPLSFESAEEN | 5.54
MKLKKRVSMFLVALTMCGGLFVTPPFVAKAVKT | 4.47
MKKSYKATALFLGLTPAGANAADL | 8.17
MMKKGSLFFLLAGALTATVLFGTCAVDVPGIISPKTAEAASQ | 3.32
MKSKWMSGLLLVAVGFSFTQVMVHQGET | 6.96
MKRQKQKASLVLFAVVFVFAVKGAPAKAETH | 2.05
MGLGKKLSVAVAASFMSLSISLPGVQYAEG | 4.06
MKRIRIPMTLALGAALTIAPLSFLSAEEN | 4.62
MIAYFGKCLLLVTIMFLGVLFGMPQANHG | 5
MKLWMRKTLVVLFTIVTFGLVSPPAAMMADKP | 1.82
MKKVLMAFIICLSLILSVLAAPPSGAKGESV | 2.46
MLKKIALTLCPAIVGSLLFFTVILITAPASAHVS | 3.87
MKLWMRKTLVVLFTIVTFGLVSPPAATMADKP | 2.68
MTMLRKIRRKKLLLCIIPLFAFTVIASGKEV | 6.88
MKKRKRRNFKRFIAAFLVLALMISLVPADGLAKST | 2.45
MSKTGRYTKAVIVIAALITFNVRNASPG | 4.05

Sequence | AmyQ secretion efficiency
MKSKWMSGLLLVAVGFSFTQVMSHAGET | 6.67
MKKRRGRGSVLVPALIMSGITLIEANKK | 7.89
MKKVLMAFIICLSLILSVLAAPPSGAKSESV | 3.92
MSMVMLATALFLGLTPAGANAADL | 5.37
MLMLCLWFTVFSLFLVLLPGKALGAVD | 5.08
MRKNRILALFVLSLGLLSFMVTPSSTVSAASK | 2.01
MTRLLSTLLIGIMLLTFAPSAFAKQD | 1.6
MKRLLVSLRVWMPDRKTAAAAVY | 6.76
MTKKAWFLPLVCVLLIDEDLAPAASASAQTT | 2.58
MKVLLSALLLLLFAFEPSDSGKKL | 6.13
MKLAKRVSALTPSTTLAITAKCKEL | 7.76
MRKVFPLILSAVLFLSCFFGARQTEASASKR | 2.13
MKIRKILLSSALSFGMLEDDDEDALAAGT | 5.74
MKKRKRRNFKRFIAAFLVLALMISLVPADVLAKRK | 3.6
MRKKRVITCVMAASLTLGPAGYASAKED | 3.6
MKRIRIPMTLALGAALTIAPLVLTVFAALSSFASAEEN | 6.39
MKKWMITIAMLILAGIALFVFISPLKGHKT | 6.29
MKRKKLCVMMLLFSAIASFPVSAQAKDQ | 2.65
MKQGKFSVFLILLLMLTLVVRRRKKRKAEAASS | 7.96
MAIIIAIIAAVIVIAALITFNVRNASKR | 7.12
MKKKLAAGLTASAIVGTTLVVTPAEAKRK | 6.02
MRSKKLWISLLFALTLIRKRKKRNMSAQAAGK | 9.84
MSKWMAGLFLAAAVLLCLMVPQQIQGASS | 4.5
MKVCQKSIVRFLVSLIIGTFVISVPFMANAEED | 3.09
MKRFSTAYLLLLGILCSAAVFLIGAPSRALGAEV | 3.05
MKSKGSIMACLILFSFTITTFINTETTSAFSN | 5.51

Sequence | AmyQ secretion efficiency
MKLSVKIAGVLTVAAAAMDDEDDEATAKGN | 7.46
MKRKKKKASLVLFAVVFVFAVKGAPAKAETH | 2
MRKYTVIASILLSFLSVLRGGHHRSKAFPV | 7.77
MKRITIIITMFIAAAVISLTGTAEAAEK | 2.84
MKSKGSIMACLILFSFTITTFINTETISDFSN | 6.98
MKVPKTMLLSTAAGLLLSLTATSRSAHYV | 6.25
MKKKLAAGLTASAIVGTTLVVTPSEAATI | 3.77
MPYLKRVLLLLVTGLFMSLFAVTATASRQTG | 1.19
MAIIIAIIAANVRNASPG | 7.68
MNFKKTITTSSSVVSALSISALALSVSGVASAHEI | 4.04
MKWMCSICCAAVLLAGGALQAEAV | 2.66
MKKKLAAGLTASAVTPAEAATI | 6.26
MMKVLMAFIICLSLILSVLAAPPSGAKAESV | 5
MGRIKTKITILLVLLLLLAGGYWYIN | 6.88
MRSYIKVLTMCFLGLILFVPTALCDNS | 3.89
MPYLKRVLLLLVTGLFMSLFAVTATKSAQTG | 4.38
MLMSIALTLCPAIVGSLLFFTAPASAHVS | 4.17
MRNLTKYTTSKGGLCTAAQMVFVTHASAEES | 7.66
MGLGLLLSVAVAASFMSLSISLPGVQAAEG | 2.94
MRKKRVKRCKKKRSLTLGSLLPAGYASAKED | 7.22
MFNRLFRVCFLAALIMAFVFTLPNSVYAQKP | 2.33
MMKKGQSGSALTATVLFGTCAVDVPGIISPKTAEAASQ | 6.78
MKSKWMSGLLLVAVGFSFTQVMVHEGET | 5.54
MKKRLIGFLVLVPALIMSGITLIENNKK | 6.74
MKKRFSLIMMTGLLFGLTKKRAFAAEK | 6.54
MTKLKMLSMRSRMIASLFIFSSQALAVQY | 3.8

Sequence | AmyQ secretion efficiency
MLGKIALTLCPAIVGSLLFFTAPASAHVS | 2.47
MNLRKILLSSALSLGMLVSAAPVLSTSS | 4.72
MKTKTLFIFSAILTLSIFAPNESFAQTA | 2.17
MPIKKKVMMCLAVTLVFGSMSFPTLTNVGGFKE | 5.79
MKKKQVMLALTAAAGLGLTALHSAPAAKSAPL | 3.28
MKQFAITLSVLCALILLVPTLLVIPFQHNKAAGASV | 4.37
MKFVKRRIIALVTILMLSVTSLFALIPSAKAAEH | 2.54
MKKRITYSLLALLAVVAFAFLTDSSKAKAAEA | 3.06
MKWMCSICCAAVLLAGGAAASSSVVAQAEAV | 3.55
MFKKLLLATSALTFSLSLVLEEDDHAKAQEV | 3.32
MKKKQVMLALTAAAGLGLTALKHKKKKAKAAPL | 6.6
MKSKGSIMACLILFSFTITTFINTETISAFSD | 6.02
MKRLFMKSSKRLFAVVFVFAVKGAPAKAETH | 7.81
MTGLWRSLALCGLALTLAPCAQAAEP | 2.01
MKNMSCKLVVSVTLFFSFLDSTPGAHAQNS | 1.96
MLKKIALTLCPAIVGSLLFFTAPDSAHVS | 6.1
MKRFSTAYLKKRKLCSAAVFLIGAPSRALGAEV | 6.51
MKKLVLCVSILAVILSGVGLTQLS | 5.94
MPGKSAVLLSLIMLIAGFLISFSFQM | 7.65
MKKAFLVFLSVVLVTTVFLVKQQEAQAKQL | 2.1
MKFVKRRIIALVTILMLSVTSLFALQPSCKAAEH | 2.68
MKQGKFSKRLILLLMLTLVVAPKEKAEAASS | 1.59
MLKKKWMVGLLAGCLAAGGFSYNAFPTEN | 5.71
